The target of experiment [1] is Aβ42 (Homo sapiens, UniProt P05067). Kind of experiment: Fluorescence polarization. Format: binding. Conditions: read-out: apparent Kd for the Aβ42/CP interaction; fluorescence polarization of FAM-Aβ42 with increasing concentrations of CP.
Experiment [2] concerns the target biotinylated-Aβ42 (Homo sapiens, UniProt P05067). Put plainly: Single-molecule TIRF imaging of Cy3-CP on immobilized biotinylated Aβ42. The format is binding.
Experiment [3] in a line: Fluorescence spectra of FAM-Aβ42 during incubation in PBS. The format is physicochemical. Conditions: PBS buffer, 0 to 60 minutes, in the presence of CP.

Sequence of biotinylated-Aβ42 (P05067 672-713): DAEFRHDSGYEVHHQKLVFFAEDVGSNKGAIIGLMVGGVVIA
Sequence of Aβ42 (P05067 672-713, one chain of several): as the sequence (P05067 672-713) above

B1: ceruloplasmin (protein)
chain: KEKHYYIGIIETTWDYASDHGEKKLISVDTEHSNIYLQNGPDRIGRLYKKALYLQYTDETFRTTIEKPVWLGFLGPIIKAETGDKVYVHLKNLASRPYTFHSHGITYYKEHEGAIYPDNTTDFQRADDKVYPGEQYTYMLLATEEQSPGEGDGNCVTRIYHSHIDAPKDIASGLIGPLIICKKDSLDKEKEKHIDREFVVMFSVVDENFSWYLEDNIKTYCSEPEKVDKDNEDFQESNRMYSVNGYTFGSLPGLSMCAEDRVKWYLFGMGNEVDVHAAFFHGQALTNKNYRIDTINLFPATLFDAYMVAQNPGEWMLSCQNLNHLKAGLQAFFQVQECNKSSSKDNIRGKHVRHYYIAAEEIIWNYAPSGIDIFTKENLTAPGSDSAVFFEQGTTRIGGSYKKLVYREYTDASFTNRKERGPEEEHLGILGPVIWAEVGDTIRVTFHNKGAYPLSIEPIGVRFNKNNEGTYYSPNYNPQSRSVPPSASHVAPTETFTYEWTVPKEVGPTNADPVCLAKMYYSAVEPTKDIFTGLIGPMKICKKGSLHANGRQKDVDKEFYLFPTVFDENESLLLEDNIRMFTTAPDQVDKEDEDFQESNKMHSMNGFMYGNQPGLTMCKGDSVVWYLFSAGNEADVHGIYFSGNTYLWRGERRDTANLFPQTSLTLHMWPDTEGTFNVECLTTDHYTGGMKQKYTVNQCRRQSEDSTFYLGERTYYIAAVEVEWDYSPQREWEKELHHLQEQNVSNAFLDKGEFYIGSKYKKVVYRQYTDSTFRVPVERKAEEEHLGILGPQLHADVGDKVKIIFKNMATRPYSIHAHGVQTESSTVTPTLPGETLTYVWKIPERSGAGTEDSACIPWAYYSTVDQVKDLYSGLIGPLIVCRRPYLKVFNPRRKLEFALLFLVFDENESWYLDDNIKTYSDHPEKVNKDDEEFIESNKMHAINGRMFGNLQGLTMHVGDEVNWYLMGMGNEIDLHTVHFHGHSFQYKHRGVYSSDVFDIFPGTYQTLEMFPRTPGIWLLHCHVTDHIHAGMETTYTVLQNEDTKSG
On to B1, for which, in experiment [1], the Kd is 123 ± 6.7 nM. Also, the “TIRF image brightness of CP/Aβ versus CP alone” value in experiment [2] (Cy3-labeled CP, imaging for 10 minutes) is reported as “much higher”. Moreover, in experiment [2] (TIRF, 100 nM CP-Cy3, no Vc), the “half-lifetime of stable binding” value was about 62.3 s and the “half-lifetime of transient binding” value is given as “about 14.6 s”. The “stable K(slow) of CP/Aβ binding” value in experiment [2] (TIRF, 100 nM CP-Cy3, no Vc, unit not given) is reported as “about 0.011”. Moreover, the “half-lifetime of stable binding with Vc” value in experiment [2] (TIRF, 100 nM CP-Cy3 with 250 μM Vc) worked out at 39.0 s. Further, the “effect of CP on the fluorescence intensity decrease of FAM-Aβ42” value in experiment [3] was “considerably attenuated”.

The record behind these values is PMC10350030 (bioRxiv, 2023).
